Data on 13 sequences can be found in the Immune Epitope Database (IEDB).

In general, pKd refers to the negative decadic logarithm of the Kd, by convention in mol/L.

pKd: −log10 of the molar value. Where only a bound is given, the exact number is not on record here.

The target in experiment [1] is HLA-A*02:19. Nature of the experiment: IEDB peptide-MHC binding, purified MHC/competitive/fluorescence; filed as Kd, often an IC50 or EC50 that approximates it; ≥ and ≤ were set here for values at or beyond the usual limits of such assays. As to conditions: source organism: Toxoplasma gondii.
In experiment [2] the target is HLA-A*02:12. The description is as above. As to conditions: source organism: Toxoplasma gondii.
Experiment [3] concerns the target HLA-A*03:01. The description is as above. As to conditions: source organism: Toxoplasma gondii.
In experiment [4] the target is HLA-A*26:01. The description is as above. As to conditions: source organism: Toxoplasma gondii.
In experiment [5] the target is HLA-B*18:01. The description is as above. The note with it: source organism: Toxoplasma gondii.
Experiment [6] has as its target HLA-B*39:01. Described as above. As to conditions: source organism: Toxoplasma gondii.
In experiment [7] the target is HLA-B*27:03. Described as above. The note with it: source organism: Toxoplasma gondii.
Experiment [8] has as its target HLA-A*31:01. The description is as above. As to conditions: source organism: Toxoplasma gondii.
Experiment [9] deals with HLA-C*06:02. Nature of the experiment: IEDB peptide-MHC binding, purified MHC/direct/fluorescence; filed as Kd, often an IC50 or EC50 that approximates it; ≥ and ≤ were set here for values at or beyond the usual limits of such assays. The note with it: source organism: Toxoplasma gondii.
In experiment [10] the target is HLA-C*15:02. Described as above.
Experiment [11] has as its target HLA-C*14:02. The experiment is described as above.
Experiment [12] has as its target HLA-B*40:01. As to the kind of experiment: IEDB peptide-MHC binding, purified MHC/competitive/fluorescence; filed as Kd, often an IC50 or EC50 that approximates it; ≥ and ≤ were set here for values at or beyond the usual limits of such assays.
Experiment [13] deals with HLA-A*69:01. Nature of the experiment: IEDB peptide-MHC binding, purified MHC/direct/fluorescence; filed as Kd, often an IC50 or EC50 that approximates it; ≥ and ≤ were set here for values at or beyond the usual limits of such assays.
In experiment [14] the target is HLA-A*03:01. The description is as above.
Experiment [15] has as its target HLA-A*02:01. The experiment is described as above.
The target of experiment [16] is HLA-B*46:01. The experiment is described as above. The note with it: source organism: Lassa virus Josiah.
Experiment [17] deals with HLA-B*15:01. Described as above.
Experiment [18] has as its target HLA-B*27:05. Described as above.
Experiment [19] concerns the target HLA-B*48:01. The experiment is described as above. As to conditions: source organism: Lassa virus Josiah.
Experiment [20] concerns the target HLA-B*40:01. Described as above.
For experiment [21], the target named is HLA-B*39:01. Described as above.
Experiment [22] concerns the target HLA-B*58:01. The description is as above.
Experiment [23] concerns the target HLA-A*31:01. The description is as above.
The target of experiment [24] is HLA-B*57:01. Described as above. As to conditions: source organism: Lassa virus Josiah.
The target in experiment [25] is HLA-B*07:02. The description is as above.
For experiment [26], the target named is HLA-B*44:02. The description is as above.
In experiment [27] the target is HLA-B*15:09. Described as above.
The target of experiment [28] is HLA-A*01:01. The description is as above.
Experiment [29] deals with HLA-B*27:05. As to the kind of experiment: IEDB peptide-MHC binding, purified MHC/competitive/fluorescence; filed as Kd, often an IC50 or EC50 that approximates it; ≥ and ≤ were set here for values at or beyond the usual limits of such assays.
For experiment [30], the target named is HLA-C*07:02. Nature of the experiment: IEDB peptide-MHC binding, purified MHC/direct/fluorescence; filed as Kd, often an IC50 or EC50 that approximates it; ≥ and ≤ were set here for values at or beyond the usual limits of such assays.
Experiment [31] concerns the target HLA-A*24:02. As to the kind of experiment: IEDB peptide-MHC binding, purified MHC/competitive/fluorescence; filed as Kd, often an IC50 or EC50 that approximates it; ≥ and ≤ were set here for values at or beyond the usual limits of such assays.
The target in experiment [32] is HLA-A*26:02. Nature of the experiment: IEDB peptide-MHC binding, purified MHC/direct/fluorescence; filed as Kd, often an IC50 or EC50 that approximates it; ≥ and ≤ were set here for values at or beyond the usual limits of such assays.
For experiment [33], the target named is HLA-B*08:02. The experiment is described as above. As to conditions: source organism: Rickettsia sibirica 246.
For experiment [34], the target named is HLA-A*26:01. The experiment is described as above.
In experiment [35] the target is HLA-A*24:02. The experiment is described as above. As to conditions: source organism: Rickettsia conorii.
Experiment [36] addresses HLA-B*08:01. Described as above. The note with it: source organism: Rickettsia sibirica 246.
The mark [37] stands for this setting: source organism: Toxoplasma gondii.
[38] abbreviates: source organism: Lassa virus Josiah.
Where [39] appears, read: source organism: Influenza A virus (A/Harbin/1/1988(H1N2)).
Where [40] appears, read: source organism: Rickettsia conorii.
The mark [41] stands for this setting: source organism: Vibrio cholerae V52.
Setting [42] is: source organism: Vibrio vulnificus YJ016.

Regarding RTWFYRTEF, the negative-log Kd (pKd) in experiment [1], in experiment [2], in experiment [3], in [4], in experiment [5] and in experiment [6] was at most 4.70 throughout. Moreover, the negative logarithm of the Kd (pKd) was at most 4.70 in experiment [7]; 7.58 in [8]; at most 4.70 in [9]; 6.90 in [10] (setting [37]); 6.82 in [11] (setting [37]).
LEALSPPLL gave a pKd in [12] (source organism: Escherichia coli E22) of 8.26.
Take NHYLCLNCL: the pKd in [13] (setting [38]), in [14] (setting [38]), in experiment [15] (setting [38]), in [16], in experiment [17] (setting [38]) and in experiment [18] (setting [38]) was at most 4.70 throughout. Further, the pKd was at most 4.70 in experiment [19]; at most 4.70 in experiment [20] (setting [38]); 7.59 in experiment [21] (setting [38]); at most 4.70 in experiment [22] (setting [38]); at most 4.70 in [23] (setting [38]); at most 4.70 in experiment [24]. The pKd in experiment [25] (setting [38]) is at most 4.70; in experiment [26] (setting [38]), at most 4.70; in experiment [27] (source organism: Mammarenavirus lassaense), 6.37; in [28] (setting [38]), at most 4.70.
Turning to TRVTNNVYL, the figures for the pKd in experiment [21] (source organism: Camelpox virus M-96) and in experiment [27] (source organism: Variola virus) were 7.70 and 5.39, respectively.
As for GEINGEHVP, the negative logarithm of the Kd (pKd) in experiment [12] (source organism: Escherichia coli B7A) is 7.06.
With GRINYYWTL, the negative-log Kd (pKd) in experiment [29] (setting [39]) was 7.31; in [30] (setting [39]), 7.60.
Take RLGKGYMF: the pKd in experiment [31] (source organism: Influenza A virus (A/Fort Monmouth/1/1947-mouse adapted(H1N1))) was 7.49.
In experiment [32] (source organism: dengue virus type 3), EVHTWTEQY had a negative-log Kd (pKd) of at least 9.00.
As to AREIRDQGY, the pKd in [29] (source organism: Escherichia coli 536) was at most 4.70.
Regarding SSSGMDAYY, the pKd in experiment [33] was at most 4.70; in [13] (setting [40]), at most 4.70; in experiment [14] (setting [40]), at most 4.70; in experiment [15] (setting [40]), at most 4.70; in experiment [34] (source organism: Rickettsia sibirica 246) it was 6.91; in experiment [17] (setting [40]), 6.80. Also, the pKd was at most 4.70 in experiment [18] (setting [40]); at most 4.70 in experiment [20] (setting [40]); 6.67 in [22] (setting [40]); at most 4.70 in experiment [23] (setting [40]); at most 4.70 in experiment [35]; at most 4.70 in [36]. The pKd in [25] (setting [40]) was at most 4.70; in [26] (setting [40]), at most 4.70; in experiment [28] (setting [40]) it was 7.16.
Regarding DIIWHLNDL, the values for the negative-log Kd (pKd) in experiment [34] (setting [41]) and in experiment [32] (setting [41]) were 6.32 and 8.52, respectively.
On to LEVSFGSVI, for which the pKd in experiment [12] (source organism: Salmonella enterica subsp. enterica serovar Typhi) is 8.46.
YYGRWVHEF: the pKd in [31] (setting [42]) is at least 10.00; in experiment [10] (setting [42]) it was at most 4.70; in experiment [30] (setting [42]), 7.34; in experiment [11] (setting [42]), 7.60.
